Reference: publication PMC3195437 (Biochemical Journal, 2011)

B1: rHtrASA (recombinant, N-terminally truncated, proteolytically inactive HtrA of Synechocystis sp. PCC 6803, Ser296 replaced by alanine) (enzyme, UniProt P73354 94-452, looked up)
chain: SIAPANESLATNLQSRLSPREPSNFVVDVVESTGPAVVRINAQKTVKSQVPQAFNDPFLQRFFGSQMPPMPNERVQRGTGSGFIVSNDGKIFTNAHVVDGADEVTVTLKDGRSFPGRVMGSDPSTDVAVVKIEAGDLPTVALGDSDHLQVGEWAIAIGNPLGLDNTVTTGILSATGRRSADIGVPDKRVEFIQTDAAINPGNAGGPLLNADGQVIGMNTAIIQNAQGIGFAIPINKAQEIAQQLIATGKVEHAYLGIQMVTMTPELQSQIRQETGMNIPVDKGVVIMQVMPNSPAAIAKLEQGDVLQSLQGQPVENAEQVQSLVGKLAVGDEVELGILRNGQQQNLTVTIGALPSAPPQ
B2: rHhoBSA (recombinant, N-terminally truncated, proteolytically inactive HhoB of Synechocystis sp. PCC 6803, Ser258 replaced by alanine) (enzyme, UniProt P73940 51-416, looked up)
chain: SLTPAPVESNYRSALPLTLPRSAQDDQELNFIARAVQKIGPAVVRIDSERTAVSQGGPMGDQPFFRRFFGEEMPPNPDPREQGTGSGFILSSDGEVLTNAHVVEGASTVKVTLKDGSVLEGKVMGIDTMTDVAVVKVEAENLPVVEIGQSDRLQPGEWAIAIGNPLGLDNTVTVGIISALGRSSSEVGVPDKRVRFIQTDAAINPGNAGGPLLNAKGEVIGVNTAIRADAQGLGFAIPIQTAQNVAENLFTKGKMEHPYLGIHMVTLTPEMTKQLRTSGELPAGVTADTGVLIIQVSPGSPAAQAGLAPGDIILEVGGMGVKTATDVQERVEVSQIGEPLAIAVKRGQKPQMMAVRPGPFPEDLGQ

Target: the molecule itself
Assay: SEC

| Protein | stoichiometry N |
| --- | --- |
| B1 | 3 |
| B2 | 3 |
